Data reported in the DeepSol protein solubility set.

Assay: soluble on expression in E. coli; label from the status in PepcDB or PDB records

| Sequence | soluble on expression in E. coli |
| --- | --- |
| MLSVAGHRFASLATTPVLRMGLARCFSSVTGPFQCPPLPYVKNALEPHMSAETLTYHHDKHHQTYVDTLNSIAAENSTIASKTLEQIIKTETGKPFNQAAQVYNHTFFFNNLAPNGGGEPTGKIAELITRDFGSFEKFKEDFSAAAVGHFGSGWVWLIADDGKLKIVQGHDAGNPIRESKTPLMNIDVWEHAYYIDYRNARAQYVKNYWNLVNWDFVNDNVAKAGI | soluble |
| MLSYRHAFHAGNHADMLKHFTLFLVLQYFNRKDKPYWYIDTHGGAGVYNLEGSEAQKVGEYRQGIALLRQAQNLPAELSDFAAHIQKILPSPKLYCGSPWLAQSLTRVGDKLRLFELHPTDFVHLQNNMGEAGLGKRGQVLREDGYKGLISLLPPPPRRATVLIDPPYEEKQDYRRVTETLKAALKRFESGCYLIWYPCLSREESRKLPEELKKLLPDNYLHAELHVHAPKADGFGMHGSGMFVINPPYLLAEQLAANLPALTRLLAQDEGSRYLLDSKIR | not soluble |
| MLTEERHQKILQLLDQKSVVKSQELASLFNASESTIRRDLQELEDANLLERIHGGAKRILNLGFEQNMTEKSIKNTHEKQKIASLAVSCVQDGDMIYLDAGSTTLEMIPFLVGKQIHVVTNSVHHAAKLSDMEIPTIMLGGTLKLSTKAIIGATSMEQLQHFRFNKAFLGTNGAHLEFGLTTPDPEEAALKALAIHQAETAYVLLDHTKFNEVTFTKVEELESVTLLTDYCPAESLQGFQQKTILMEANKLEHHHHHH | soluble |
| MLTEQQRRELDWEKTDGLMPVIVQHAVSGEVLMLGYMNPEALDKTIESGKVTFFSRTKQRLWTKGETSGNFLNVVNIAPDCDNDTLLVLANPIGPTCHKGTSSCFGDTAHQWLFLYQLEQLLAERKSADPETSYTAKLYASGTKRIAQKVGEEGVETALAATVHDRFELTNEASDLMYHLLVLLQDQDLDLTTVIENLRKRHQ | not soluble |
| MLTFLFELDKNLPQKDEPRYDAYSKGFIEGDVTICASDSVFFQKSCMKVAELGIYLGQWMEQVQHGQNVPMKYETADREEVILGFFYEEDHNQWIVFSSWQEFELQERIATATLIESVQRYLYELNKELRMIEYPVTFDQYLRGERMMQLSYKRPCDSKADTTPIEVYNGSEQVGVVRGYYKNTLMRALDFIPKIGSNIIYEIKDSKDNIRVIAKDVSRQRQRRILVMYKDNHDAEHEILVCDGKLLDANFLFTFTYKAEEYVVHKTLFGMGKLLRKGYVIADWNIRLEEDMYYIEMNVYDEDYMQDQYLLLGVFHAVLYG | not soluble |
| MLTIARRFSGSSICRKQITVGSNNIQVIKNIQDREYEAIWKTIGSTRSDLKKDDIKKFKEAWGNDYHQTLTFLKDSDRLIASNSHVVFRPLKDSKGLENLVFRGNLWISPDVRGSEIMDITDKQSYDVGFSVGNNSMAYATKKTMDQYKNLTGSMDHLHKYYVSNYDFGDLCIPKDLDTSGIVVKNARDVPDTDILKYDAKVFKYERSKYVLGQIREDFGRVAYNEKGDVIGIGAISVYPSGECAITPMYADDIRIARTILKNILEEMTLDAEKYWRLQIRSHDQHTGSYGWIRPFLSTMTHRSEVCTLMCDHKEKGMDFSKVYSTFHADNCPI | not soluble |
| MLTLSFATGTEPNKWFTRFEERTDHGGLRTLSDDDPLSLLVDATADLALVRLPDPRMDNDDTVHVVELYQESMGVALPKEHTLTLLDVVEPSDLDGEIINYITPPSLEVDVAAVRAQLQMVAANVGVVIAPRPLLKVLSGKLVEHREFSDPQRYGQARTRIALVWKKERDGEDIQDFVGIAKGRTVQSSRQSNAKKVSAREKTLAKQKRRKEAGKKPVRKGGRRKR | not soluble |
| MLTQEQIDIIREGPDYFLESIWFRIGQLYGLSPGQIDHDSFEERKNDLFFLLGKLLDEGQIKIGNHKGNFISGPTPALVEMFRSSFPDSDEKAQAIWFITECPGGIVWVLKGQGEKGQDVYKWWLFKDEK | not soluble |
| MLTTLSCCCNMPVVKVNCWNNMKVQIKSITQWGGVLLLSFSSCYVNANKLIKPNILFIAVDDLKPLIRDYGTAKVQTPNIDKLASQSTVFTRAYSQYPVCGPSRMSILTGLRPESNGIMNLKDKIRDVNPSVITLPQFFKNNGYETAATGKIFDPRNTTSRSEEEVLSWSIPYQRPKHGLKGKTRLAVESIDEPDEKFVDGGILKRGKKLLKQMANKNKPFFLAVGFKKPHLPFVAPKKYYDLYSRESFDLASYQSAPEDADTTYLFHKNQELRGYKPTPIKGGEIKPYPKGKLSSAHQKELLHGYFASVSFIDSLVGELLEELEKTGQAENTVIVFWGDHGFHLGDHGLWGKHTTMEQANHVPLIIKIPGSKANRYAKPVELLDVFPSLTEAAGLSIPNNLQGTSLVSLVTGKLKSIDKVAISQYKRKGAYGYSMRTEQYRYTQWVTPSGKVVYRDLYDLINDPLETKNIINTPEGKLLEVELNKQLHTNSAGLKRLKLEHHHHHH | not soluble |
| MLVLPKGVRHMPAYLSRAIQDALVEDVRSIVQQAPLFVPAMPRTGKEMSVRMTNCGPLGWVTDKERGYRYQPTHPLTGEPWPPIPESLLDLWRQVSGYPNPPEACLINFYTADAKMGLHQDRDEADFSAPVVSVSLGDDCLFRVGQTTRDGATKSFRLKSGDVVVLGGEGRLAFHGVDRIYPSTSALLKNGGRINLTLRRVTKPHEECLTSRSLEHHHHHH | soluble |
| MLVPGRVYLFRIPEGKEIIEFLREFAEKENIKVGIISAIGTLRNPVIGYFMEEEKKYKEISLTGTYELLSLSGNISLKDGKPFVHAHVVLGDSEGRAFGGHLVRGEVFVAEVFVQELEGETLERKPTEHGLALWLEHHHHHH | not soluble |
| MLYDKWDVIMKKVQDIVEAIPKNGTLSIVQRDLESNGDKFALKNPPQSFNLEHHHHHH | not soluble |
| MLYNKSSFCLWKETIVPIILDSDVLEVAEYVYKTRLSQPYTEVGSEWEYNYKNPTATFAKGDGHNLQRYITIDGKQLHRPIHGLAHTMRTLMYSQLMYCSSKKQPSPHVCQDGRTIADLSELDLKKINIAQLFFVAGRESEASYGDAYHRYHLYGAKQFEEYARKHLTHLFSEEEIRLYSRCIEDRVGDSFDGTPEGYIIHLSHMIDLMRCKSPVEVFLGHSKGVSGIVPTLIHLFGKQDGLDIMHYARGLFAATGEAVPYIDSSEWPHLGVDLSRVQRALSIVGDINVPGQEADSKKTAQAGFSVDGCYSALTSVPTPSWYEKELKEIDDEKIDVKEVDDREIEKEHEIVVPSQATTPLSTVKTDSFVEKLLKPFMIWKKPEVQTTQPTTEKTNKP | not soluble |
| MMAYKSLLTVLTDPKIAPATLAQLVALAEAQDAHAEALCLGVDRSQTGYYYAGANALILQETLNRANAEAEEVLTLAQDTLGKSGVRWSAESGVAQIADLGRHVAHRARFSDLVVLSRPYGEDRGSEAEPIVEAAMFEGHAPVLVVPDNAPPLKQPRTVLLGWNESVEAMRAIRLAMPFLRAADLVRIVVIDPPRHGPDRSDPGGLLSQMLARHGVKVEIDVLSKTMTRVSDILNRHATDTSADMLVMGAYGHSRFREAILGGATRNMLEQATVPVFMAH | not soluble |
| MMFDRETQVVDCRCGGGLGKGGGLAQRGTLSEAGRADVVAVAMSPGQRHITKPVCEITYGMRKENIQVSVLVLYSGSGIPESGMRTGSFVLSPVEVAQIEMHKLAVIHLGNIKDHVIRKTREILSQVDIPAIIVSQIPVDFEDFAEAGIKTRLVMPRDENIRTKGIVMDMVSGVTRGDSCPRDKLNLIVKYVKTTLDQLKDHKGVALEHHHHHH | soluble |
| MMFGRFTQRAQKVLALSQEEAMRLNHSNLGTEHILLGLVREGEGIAAKALYELGISSEKVQQEVEGLIGHGEKAVTTIQYTPRAKKVIELSMDEARKLGHTYVGTEHILLGLIREGEGVAARVLSNLGISLNKARQQVLQLLGGGDATGAGRQTNTQATPTLDSLARDLTVIAREDNLDPVIGRSKEIQRVIEVLSRRTKNNPVLIGEPGVGKTAIAEGLAQQIVRNEVPETLRGKRVMTLDMGTVVAGTKYRGEFEDRLKKVMDEIRQAGNVILFIDELHTLIGAGGAEGAIDASNILKPPLARGELQCIGATTLDEYRKYIEKDAALERRFQPIKVDEPTVEESIQILHGLRDRYEAHHRVAITDEALEAAVRLSDRYISDRFLPDKAIDVIDESGSKVRLKSFTTPKNVKEMENNLSDLKKEKDAAVQGQEFEKAASLRDKEQKLKKSLEETKANWQEKQGLDHSEVTEDIVAEVVASWTGIPVAKLAETETNKLLNMEKLLHERVIGQDAAVKAVSLAVRRARAGLKDPKRPIGSFIFLGPTGVGKTELARALAESMFGDEDSMIRIDMSEYMEKFSTARLVGAPPGYVGYEEGGQLTEKVRQKPYSVVLLDEIEKAHPDVFNMLLQVLDDGRLTDSKGRVVDFRNTVIIMTSNIGAQEMKQDKSMGFNVTDPLKDHKAMEHRVLQDLKQAFRPEFINRIDETIVFHSLQEKELKQIVTLLTAQLTKRLAERDIHVKLTEGAKSKIAKDGYDPEYGARPLKRAIQKEVEDMLSEELLRGNIKVGDYVEIGVKDGKLEVRKKDAPKKKTTSKKVKAK | not soluble |
| MMHEKNIALLCDEADRLLQLNINLLRQMVDEPDVLSDSKNENGLLFDKRKALKRIEELEGEQIKTARREMVLAVVGTMKAGKSTTINAIVGQEILPNRNRPMTSVPTLIRHVPGKTEPVLHLEHIQPVRNLLITLQEKLATPAGQQVAQSLQQTGDTRELLDILADDVWLKNEYHGEDEIFTGLASLNDLVRLAAAMGTEFPFDEYAEVQKLPVIDVAFSHLVGMDACQGTLTLLDTPGPNEAGQPQMEMMMRDQLQKASAVLAVMDYTQMNSKADEEVRKELNAIADVSAGRLFVLVNKFDEKDRNGDGADAVRQKVPAMLNSDVLPASRVYPGSSRQAYLANRALHELRKNGALPVDEAWVDDFIREAFGPMVEEDDWKDSTKVNKKAEKLWNISLIDQLITEVIQSSHSRAAALAVDSAAAKLMQNAENVSEYLSLRHQGLQQSIQSLQAHITSLLADIQEIEECQNQVTGDVRMAMEDINTKTGELLTKVCASLEEELNDYFRSGKRKEQQMLEEENSAQPRERNAFAFFHDIFGTGNQHDRMRDFDPDSPEIKFSDRRAALELMTQIESTVTSLHREAEAQFRPELEKIVSGIETGFRGTALYATENIAGRINARLEDEGFTVKISFPAVSQLQTRLAVKINLSALMEERTETVTRRRRQSGVWGTVCRWFGTSDLGWENYDEDVSRSVININKAREEVMSLTRAYFGELQASIEQDINQPVRQEIDAFFCAFREKVEQLRNTLIQSSEDHKRDQQAQERLTGRLQALNERVPELITDSKALREELETML | not soluble |
| MMHKRDQDYWIFSAELRDAKVKDDQSSKPQIVTPLGISIKRILCTGTVTSKQGDDRMTRITVADPVGNFYVIGFSNGFNPEEKAMLDKVSVDDRIMVIGKISSYRNTEGNYLFSIRPELVSKIDDEAMKFWSLKAYYFAKRRYYAIREAQKSENPAAEILKESGYTMVEAEAAMNAINNFPNYDYQKLFELIEPAMSSIGSSGAIAEARSMILDYIKNNDLDGKGCRYEDIVVAAKNAGIDQSTVDEILNSLGSLGEIFEVSLKRYKFVDTP | not soluble |
| MMKEQNIPQDSLIAGYLPADYCDSFSRNVVSEKAITSDEFFDMAFNHSPGWVNGLMKLRNAIVKPLGLEVGMRFADTICEQNAQEVVFGMPDKHLTFHASLWCGEKEPGGQTFTITTVVKFNNRLGRLYFFFIRPFHKVIIRSMLKRVAKRLK | not soluble |
| MMKIAIIGSGISGLTCGYYLHRYHDITLFEANDYIGGHTATVDVELAGKPYAVDTGFIVYNDRTYPNFIKMMDEIGVQGKPTQMSFSVRNDANGLEYNGHTLTTLFAQKRNWLNPKFYRFIAEILRFNRLTKACVDNQLANEQTLGDFLAQHQFSEYFCENYILPMGAAIWSSSLADMRAFPLMFFARFFLNHGLLDVTNRPQWYVIPGGSRSYIAPLTQGFGDRIRLNSAVTQVKRLPSGVEVVVNGRSERFDEVIFACHSDQALAMLSDASSTEQQLLSALAYQANEVVLHTDTRLLPKRKAAWAAWNYWLKGEANQETRLPSLTYNMNILQHIEAPETFCVTLNSSEDIDPSKILRRFTYHHPVFSRPAIEAQQKKAQISGVNHTWFCGAYWHNGFHEDGVRSALDVVTQLEAYAQRSEQGAALEHHHHHH | soluble |
